{
  "source": "patent US20230079150A1",
  "about": "“METHODS FOR PREVENTION OR TREATMENT OF VIRUS-INDUCED ORGAN INJURY OR FAILURE WITH IL-22 DIMER” (priority 2020, published 2023)",
  "molecules": {"B1": {"name": "F-652: recombinant IL-22 dimer consisting of two monomeric subunits each comprising a sequence shown in SEQ ID NO: 24 (protein)", "chain 1": "APISSHCRLDKSNFQQPYITNRTFMLAKEASLADNNTDVRLIGEKLFHGVSMSERCYLMKQVLNFTLEEVLFPQSDRFQPYMQEVVPFLARLSNRLSTCHIEGDDLHIQRNVQKLKDTVKKLGESGEIKAIGELDLLFMSLRNACIGSGGGSGGGGSGGGGSVECPPCPAPPVAGPSVFLFPPKPKDTLMISRTPEVTCVVVDVSHEDPEVQFNWYVDGVEVHNAKTKPREEQFNSTFRVVSVLTVVHQDWLNGKEYKCKVSNKGLPASIEKTISKTKGQPREPQVYTLPPSREEMTKNQVSLTCLVKGFYPSDIAVEWESNGQPENNYKTTPPMLDSDGSFFLYSKLTVDKSRWQQGNVFSCSVMHEALHNHYTQKSLSLSPGK", "chain 2": "APISSHCRLDKSNFQQPYITNRTFMLAKEASLADNNTDVRLIGEKLFHGVSMSERCYLMKQVLNFTLEEVLFPQSDRFQPYMQEVVPFLARLSNRLSTCHIEGDDLHIQRNVQKLKDTVKKLGESGEIKAIGELDLLFMSLRNACIGSGGGSGGGGSGGGGSVECPPCPAPPVAGPSVFLFPPKPKDTLMISRTPEVTCVVVDVSHEDPEVQFNWYVDGVEVHNAKTKPREEQFNSTFRVVSVLTVVHQDWLNGKEYKCKVSNKGLPASIEKTISKTKGQPREPQVYTLPPSREEMTKNQVSLTCLVKGFYPSDIAVEWESNGQPENNYKTTPPMLDSDGSFFLYSKLTVDKSRWQQGNVFSCSVMHEALHNHYTQKSLSLSPGK", "modifications": "homodimer"}},
  "key": {"C57BL/6 mice": {"test_system": "C57BL/6 mice", "assay": "LPS acute lung injury mouse model: BAL inflammatory mediators (Milliplex cytokine panel)", "assay_type": "in vivo", "conditions": "day 4", "experimental": "After approval from the Tulane University, Institutional Animal Care and Use Committee (protocol ID 607), equal numbers of male and female, 6-8 week old C57BL/6 mice (Charles River Laboratories, Cambridge, Mass.) were given acute lung injury (ALI) via intra-tracheally administered LPS. After obtaining appropriate depth of anesthesia using isoflurane, the high-dose LPS group (HDG) received 100 μg of LPS administered intra-tracheally. Approximately 30 minutes after LPS administration, 4 μg of F-652 was administered via tail vein injection (n=11), then compared to animals receiving sham injection (n=8) with phosphate-buffered saline (PBS). In the low-dose LPS group (LDG), 33.3 μg of LPS was administered intra-tracheally. F-652 was again administered at 30 minutes (n=9) and compared to sham injected animals (n=9). The Interleukin-22:Fc (F-652) protein is a recombinant fusion protein (F-652) (Evive Biotech, Shanghai, China) with two human IL-22 molecules linked to the Fc portion of human immunoglobulin G2, which extends the half-life of the molecule.\nEuthanasia and bronchoalveolar lavage (BAL) was carried out on post-injury day 4. After obtaining appropriate levels of anesthesia with inhaled isoflurane, the trachea was cannulated using a 26 gauge needle and BAL was performed with three successive washes using 1 mL of PBS. Next, a small segment of the left lower lobe was removed and saved for RNA isolation. Finally, 1 cc of 4% paraformaldehyde was injected to the lung for fixation.\nThe BAL fluid was then centrifuged at 500×gravity for 5 minutes. Cells were obtained from the BAL after centrifuge and cell counts performed. Cells were then affixed to glass slides and stained with Wright's stain. To quantify protein in the BAL supernatant, a Bradford protein assay (Bio-Rad Laboratories) was performed. Protein was quantified by measuring absorbance at 595 nm on a BMG Labtech FLUOstar Optima plate reader. In addition, the BAL supernatant was used to measure pro-inflammatory cytokines using a Milliplex Mouse Cytokine/Chemokine Magnetic Bead Panel (Millipore Sigma). The 32 cytokines measured included Eotaxin, Granulocyte Colony-Stimulating Factor (G-CSF), Granulocyte-Monocyte Colony-Stimulating Factor (GM-CSF), Interferon-γ (IFN-γ), Interleukin-1α (IL-1α), IL-1, IL-2, IL-3, IL-4, IL-5, IL-6, IL-7, IL-9, IL-10, IL-12 (p40 segment), IL-12 (p70 segment), IL-13, IL-15, IL-17, Interferon-γ induced protein 10 (IP-10), keratinocyte chemoattractant (KC), leukemia inhibitory factor (LIF), lipopolysaccharide-induced CXC chemokine (LIX), monocyte chemoattractant protein-1 (MCP-1), macrophage colony-stimulating factor (M-CSF), monokine induced by gamma-interferon (MIG), MIP-1α, macrophage inflammatory protein-1β/CCL4 (MIP-1β), MIP-2, regulated upon activation, normal T-cell expressed and presumably secreted (RANTES), tumor necrosis factor-α (TNF-α), vascular endothelial growth factor (VEGF). Human IL-22 was measured using an IL-22 Human ELISA kit (ThermoFisher Scientific). Mouse IL-22 was measured using an IL-22 Mouse/Rat Quantikine ELISA kit (R&D Systems)."}, "STAT3": {"test_system": "STAT3", "conditions": "F-652 alone compared to control HUVECs", "method": "To investigate the effects of F-652 on EGX, cultured HUVECs were exposed to either untreated media, 1 μg/mL of LPS, 1 μg/mL of LPS and 0.375 μg/mL of F-652, or 0.375 μg/mL of F-652 alone, for a total of 24 hours.\nHUVECs were lysed in lysis buffer (50 mM Tris-HCl pH 7.5, 150 mM NaCl, 0.5 M EDTA, 1% Triton X-100, and Halt™ protease inhibitor cocktail). Proteins were quantified using Bio-Rad protein quantification assay (Bio-Rad Laboratories), and 20-50 μg of protein was separated by SDS-polyacrylamide gel electrophoresis (SDS-PAGE) on a 4-12% gradient acrylamide gel run at 100 V. Proteins were then transferred to 0.45 m PVDF membrane at 30 V for 2 hours. Membranes were blocked in Tris Buffered Saline (TBS: 137 mM NaCl, 20 mM Tris Base), 0.1% Tween 20, and 5% bovine serum albumin (blocking solution) for 1 hour, followed by overnight incubation with primary antibody diluted in TBS, 0.1% Tween 20, and 3% BSA, and 1 hour incubation with horseradish peroxidase-conjugated secondary antibody diluted at 1:5,000. […] Immunoreactive protein was detected using ECL (GE Healthcare) imaged on a Bio-Rad ChemiDoc™ MP Imaging System."}},
  "data": [
    {"molecule": "B1", "values": [
      {"measurement": "TNF-α level in BAL fluid", "setting": "C57BL/6 mice; high-dose LPS, F-652 4 μg tail vein, sham 25.41", "value": 5.87, "unit": "pg/mL"},
      {"measurement": "IL-6 level in BAL fluid", "setting": "C57BL/6 mice; high-dose LPS, F-652 4 μg tail vein, sham 527.1", "value": 110.6, "unit": "pg/mL"},
      {"measurement": "G-CSF level in BAL fluid", "setting": "C57BL/6 mice; high-dose LPS, F-652 4 μg tail vein, sham 659.6", "value": 95.14},
      {"measurement": "C-X-C Motif Chemokine 5 (LIX) in BAL", "setting": "C57BL/6 mice; low dose LPS, F-652 4 μg i.v.", "value": "9.27 ± 6.04", "unit": "pg/mL"},
      {"measurement": "Eotaxin in BAL", "setting": "C57BL/6 mice; low dose LPS, F-652 4 μg i.v.", "value": "2.59 ± 1.93", "unit": "pg/mL"},
      {"measurement": "Granulocyte Colony-Stimulating Factor in BAL", "setting": "C57BL/6 mice; low dose LPS, F-652 4 μg i.v.", "value": "23.49 ± 9.15", "unit": "pg/mL"},
      {"measurement": "Granulocyte-Macrophage Colony-Stimulating Factor in BAL", "setting": "C57BL/6 mice; low dose LPS, F-652 4 μg i.v.", "value": "0.00 ± 0.00", "unit": "pg/mL"},
      {"measurement": "Interferon-γ in BAL", "setting": "C57BL/6 mice; low dose LPS, F-652 4 μg i.v.", "value": "1.15 ± 0.42", "unit": "pg/mL"},
      {"measurement": "Interferon-γ-Induced Protein-10 in BAL", "setting": "C57BL/6 mice; low dose LPS, F-652 4 μg i.v.", "value": "12.94 ± 3.54", "unit": "pg/mL"},
      {"measurement": "Interleukin-1α in BAL", "setting": "C57BL/6 mice; low dose LPS, F-652 4 μg i.v.", "value": "61.31 ± 12.36", "unit": "pg/mL"},
      {"measurement": "Interleukin-1β in BAL", "setting": "C57BL/6 mice; low dose LPS, F-652 4 μg i.v.", "value": "0.01 ± 0.01", "unit": "pg/mL"},
      {"measurement": "Interleukin-2 in BAL", "setting": "C57BL/6 mice; low dose LPS, F-652 4 μg i.v.", "value": "6.77 ± 1.75", "unit": "pg/mL"},
      {"measurement": "Interleukin-3 in BAL", "setting": "C57BL/6 mice; low dose LPS, F-652 4 μg i.v.", "value": "0.00 ± 0.00", "unit": "pg/mL"},
      {"measurement": "Interleukin-4 in BAL", "setting": "C57BL/6 mice; low dose LPS, F-652 4 μg i.v.", "value": "0.00 ± 0.00", "unit": "pg/mL"},
      {"measurement": "Interleukin-5 in BAL", "setting": "C57BL/6 mice; low dose LPS, F-652 4 μg i.v.", "value": "0.00 ± 0.00", "unit": "pg/mL"},
      {"measurement": "Interleukin-6 in BAL", "setting": "C57BL/6 mice; low dose LPS, F-652 4 μg i.v.", "value": "0.95 ± 0.62", "unit": "pg/mL"},
      {"measurement": "Interleukin-7 in BAL", "setting": "C57BL/6 mice; low dose LPS, F-652 4 μg i.v.", "value": "0.00 ± 0.00", "unit": "pg/mL"},
      {"measurement": "Interleukin-9 in BAL", "setting": "C57BL/6 mice; low dose LPS, F-652 4 μg i.v.", "value": "154.50 ± 37.46", "unit": "pg/mL"},
      {"measurement": "Interleukin-10 in BAL", "setting": "C57BL/6 mice; low dose LPS, F-652 4 μg i.v.", "value": "19.91 ± 6.56", "unit": "pg/mL"},
      {"measurement": "Interleukin-12 (p40) in BAL", "setting": "C57BL/6 mice; low dose LPS, F-652 4 μg i.v.", "value": "6.87 ± 1.88", "unit": "pg/mL"},
      {"measurement": "Interleukin-12 (p70) in BAL", "setting": "C57BL/6 mice; low dose LPS, F-652 4 μg i.v.", "value": "0.00 ± 0.00", "unit": "pg/mL"},
      {"measurement": "Interleukin-13 in BAL", "setting": "C57BL/6 mice; low dose LPS, F-652 4 μg i.v.", "value": "2.69 ± 0.93", "unit": "pg/mL"},
      {"measurement": "Interleukin-15 in BAL", "setting": "C57BL/6 mice; low dose LPS, F-652 4 μg i.v.", "value": "0.00 ± 0.00", "unit": "pg/mL"},
      {"measurement": "Interleukin-17 in BAL", "setting": "C57BL/6 mice; low dose LPS, F-652 4 μg i.v.", "value": "0.40 ± 0.06", "unit": "pg/mL"},
      {"measurement": "Keratinocyte Chemoattractant/Growth Regulated Oncogene in BAL", "setting": "C57BL/6 mice; low dose LPS, F-652 4 μg i.v.", "value": "9.11 ± 2.76", "unit": "pg/mL"},
      {"measurement": "Macrophage Colony-Stimulating Factor in BAL", "setting": "C57BL/6 mice; low dose LPS, F-652 4 μg i.v.", "value": "0.00 ± 0.00", "unit": "pg/mL"},
      {"measurement": "Macrophage Inflammatory Protein-1α in BAL", "setting": "C57BL/6 mice; low dose LPS, F-652 4 μg i.v.", "value": "15.62 ± 2.03", "unit": "pg/mL"},
      {"measurement": "Macrophage Inflammatory Protein-1β in BAL", "setting": "C57BL/6 mice; low dose LPS, F-652 4 μg i.v.", "value": "0.00 ± 0.00", "unit": "pg/mL"},
      {"measurement": "Macrophage Inflammatory Protein-2 in BAL", "setting": "C57BL/6 mice; low dose LPS, F-652 4 μg i.v.", "value": "20.45 ± 10.88", "unit": "pg/mL"},
      {"measurement": "Monocyte Chemoattractant Protein in BAL", "setting": "C57BL/6 mice; low dose LPS, F-652 4 μg i.v.", "value": "0.00 ± 0.00", "unit": "pg/mL"},
      {"measurement": "Monocyte Induced by Interferon-γ in BAL", "setting": "C57BL/6 mice; low dose LPS, F-652 4 μg i.v.", "value": "10.52 ± 4.73", "unit": "pg/mL"},
      {"measurement": "Tumor Necrosis Factor-α in BAL", "setting": "C57BL/6 mice; low dose LPS, F-652 4 μg i.v.", "value": "3.01 ± 1.79", "unit": "pg/mL"},
      {"measurement": "Vascular Endothelial Growth Factor in BAL", "setting": "C57BL/6 mice; low dose LPS, F-652 4 μg i.v.", "value": "3.01 ± 0.50", "unit": "pg/mL"},
      {"measurement": "ratio of phosphorylated STAT3 to total STAT3", "setting": "STAT3", "value": "significantly higher"}
    ]}
  ]
}
